# Measured values taken from US20260167718A1 (Merck Sharp & Dohme, published 2026).
# Numbering of substitutions follows the chain as printed. Numbers in names are those of the source.
# T1: rhesus ILT3-His tagged recombinant protein (rhesus monkey (Macaca mulatta))
# T1 construct: also called ILT3_MM; not shown: His tag
# T1 chain: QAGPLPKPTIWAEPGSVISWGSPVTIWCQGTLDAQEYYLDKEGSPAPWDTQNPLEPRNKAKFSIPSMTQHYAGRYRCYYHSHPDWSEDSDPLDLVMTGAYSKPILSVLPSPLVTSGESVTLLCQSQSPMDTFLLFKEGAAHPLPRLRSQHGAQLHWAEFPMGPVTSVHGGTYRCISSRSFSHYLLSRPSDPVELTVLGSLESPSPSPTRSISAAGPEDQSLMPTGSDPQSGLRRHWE
# B1: Humanized anti-ILT3 mAb (52B8 VH1 M64V/VL2) IgG4 S228P/Kappa (antibody)
# heavy: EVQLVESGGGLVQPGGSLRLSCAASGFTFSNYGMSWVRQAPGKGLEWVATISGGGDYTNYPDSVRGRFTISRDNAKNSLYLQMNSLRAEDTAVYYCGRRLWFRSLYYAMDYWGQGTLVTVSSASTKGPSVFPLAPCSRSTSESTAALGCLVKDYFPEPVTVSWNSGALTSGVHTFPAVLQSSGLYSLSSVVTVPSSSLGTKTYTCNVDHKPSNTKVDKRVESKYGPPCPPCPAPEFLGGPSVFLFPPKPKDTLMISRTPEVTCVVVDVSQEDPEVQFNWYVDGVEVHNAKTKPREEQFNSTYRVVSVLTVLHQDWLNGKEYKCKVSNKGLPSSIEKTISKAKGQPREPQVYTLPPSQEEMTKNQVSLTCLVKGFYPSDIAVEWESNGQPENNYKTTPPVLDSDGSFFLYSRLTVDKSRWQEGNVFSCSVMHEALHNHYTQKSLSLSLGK
# light: DIVLTQSPDSLAVSLGERATINCRASEKVDSFGNSFMHWYQQKPGQPPKLLIYLTSNLDSGVPDRFSGSGSGTDFTLTISSLQAEDVAVYYCQQNNEDPYTFGQGTKLEIKRTVAAPSVFIFPPSDEQLKSGTASVVCLLNNFYPREAKVQWKVDNALQSGNSQESVTEQDSKDSTYSLSSTLTLSKADYEKHKVYACEVTHQGLSSPVTKSFNRGEC
# notes: also called mAb 10
# B2: Humanized anti-ILT3 mAb ((52B8 VH1 M64V/VL7) L234A L235A D265S) IgG1/Kappa (antibody)
# heavy: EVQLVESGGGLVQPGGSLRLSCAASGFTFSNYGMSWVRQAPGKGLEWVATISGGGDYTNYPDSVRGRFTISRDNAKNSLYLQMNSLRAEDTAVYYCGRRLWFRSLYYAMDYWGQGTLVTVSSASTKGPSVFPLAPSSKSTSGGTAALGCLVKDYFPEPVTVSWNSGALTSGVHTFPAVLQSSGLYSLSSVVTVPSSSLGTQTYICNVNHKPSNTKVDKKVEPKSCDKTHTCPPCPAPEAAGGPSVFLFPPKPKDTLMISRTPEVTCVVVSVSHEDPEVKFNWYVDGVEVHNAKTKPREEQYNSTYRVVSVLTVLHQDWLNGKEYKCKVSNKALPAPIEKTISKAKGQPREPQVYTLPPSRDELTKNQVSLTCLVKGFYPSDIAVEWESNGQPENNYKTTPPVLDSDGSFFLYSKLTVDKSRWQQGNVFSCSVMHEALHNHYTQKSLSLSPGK
# light: DIQLTQSPSSLSASVGDRVTITCRASEKVDSFGNSFMHWYQQKPGKAPKLLIYLTSNLDSGVPSRFSGSGSRTDFTLTISSLQPEDFATYYCQQNNEDPYTFGQGTKLEIKRTVAAPSVFIFPPSDEQLKSGTASVVCLLNNFYPREAKVQWKVDNALQSGNSQESVTEQDSKDSTYSLSSTLTLSKADYEKHKVYACEVTHQGLSSPVTKSFNRGEC
# notes: also called mAb 28
# B3: Humanized anti-ILT3 mAb (52B8 VH1 M64V/VL5) IgG4 S228P/Kappa (antibody)
# heavy: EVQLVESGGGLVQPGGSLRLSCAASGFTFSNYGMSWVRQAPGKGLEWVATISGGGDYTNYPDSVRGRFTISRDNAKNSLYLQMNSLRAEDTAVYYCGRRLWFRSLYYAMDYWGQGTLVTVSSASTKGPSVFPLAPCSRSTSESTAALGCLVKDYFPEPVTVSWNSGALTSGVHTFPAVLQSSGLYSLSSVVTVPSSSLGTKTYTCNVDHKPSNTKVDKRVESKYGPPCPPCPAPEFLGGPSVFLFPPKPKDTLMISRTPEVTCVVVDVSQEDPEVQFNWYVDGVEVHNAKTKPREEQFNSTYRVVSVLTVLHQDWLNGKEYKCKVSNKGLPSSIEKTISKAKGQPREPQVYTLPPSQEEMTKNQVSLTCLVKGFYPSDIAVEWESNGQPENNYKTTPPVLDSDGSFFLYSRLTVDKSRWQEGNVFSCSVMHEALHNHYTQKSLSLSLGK
# light: B2 light with R72G
# notes: also called mAb 30; humanized 52B8 VH1 M64V/VL5
# B4: Humanized anti-ILT3 mAb (52B8 VH1 M64V/VL6) IgG4 S228P/Kappa (antibody)
# heavy: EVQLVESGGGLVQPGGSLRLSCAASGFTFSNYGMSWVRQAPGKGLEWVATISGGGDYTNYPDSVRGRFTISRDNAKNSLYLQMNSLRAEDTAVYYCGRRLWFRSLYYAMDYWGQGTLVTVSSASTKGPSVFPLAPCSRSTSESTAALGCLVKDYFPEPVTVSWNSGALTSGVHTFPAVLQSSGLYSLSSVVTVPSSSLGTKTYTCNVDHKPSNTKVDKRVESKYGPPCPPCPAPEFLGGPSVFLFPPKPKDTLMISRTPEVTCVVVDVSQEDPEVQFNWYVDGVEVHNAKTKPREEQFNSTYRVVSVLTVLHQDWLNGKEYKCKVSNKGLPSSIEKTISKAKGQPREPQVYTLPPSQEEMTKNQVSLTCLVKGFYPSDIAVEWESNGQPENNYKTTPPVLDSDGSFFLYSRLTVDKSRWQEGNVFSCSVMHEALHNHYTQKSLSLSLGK
# light: B2 light with L4M
# notes: also called mAb 31
# B5: Humanized anti-ILT3 mAb (52B8 VH1 M64V/VL7) IgG4 S228P/Kappa (antibody)
# heavy: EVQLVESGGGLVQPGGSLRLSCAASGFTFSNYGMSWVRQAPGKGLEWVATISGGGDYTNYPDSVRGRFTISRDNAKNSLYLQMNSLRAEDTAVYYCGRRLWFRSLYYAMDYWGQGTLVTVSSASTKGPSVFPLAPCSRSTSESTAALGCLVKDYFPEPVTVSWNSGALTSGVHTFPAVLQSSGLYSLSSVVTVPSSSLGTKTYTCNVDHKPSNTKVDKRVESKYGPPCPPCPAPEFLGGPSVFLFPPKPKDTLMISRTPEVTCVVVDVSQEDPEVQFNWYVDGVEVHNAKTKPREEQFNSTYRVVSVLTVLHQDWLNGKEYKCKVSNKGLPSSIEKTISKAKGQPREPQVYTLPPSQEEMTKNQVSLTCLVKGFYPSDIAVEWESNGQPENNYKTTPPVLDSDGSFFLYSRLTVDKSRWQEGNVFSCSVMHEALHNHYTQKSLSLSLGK
# light: B2 light
# notes: also called mAb 32
# B6: Humanized anti-ILT3 mAb ((52B8 VH1 M64V/VL8) L234A L235A D265S) IgG1/Kappa (antibody)
# heavy: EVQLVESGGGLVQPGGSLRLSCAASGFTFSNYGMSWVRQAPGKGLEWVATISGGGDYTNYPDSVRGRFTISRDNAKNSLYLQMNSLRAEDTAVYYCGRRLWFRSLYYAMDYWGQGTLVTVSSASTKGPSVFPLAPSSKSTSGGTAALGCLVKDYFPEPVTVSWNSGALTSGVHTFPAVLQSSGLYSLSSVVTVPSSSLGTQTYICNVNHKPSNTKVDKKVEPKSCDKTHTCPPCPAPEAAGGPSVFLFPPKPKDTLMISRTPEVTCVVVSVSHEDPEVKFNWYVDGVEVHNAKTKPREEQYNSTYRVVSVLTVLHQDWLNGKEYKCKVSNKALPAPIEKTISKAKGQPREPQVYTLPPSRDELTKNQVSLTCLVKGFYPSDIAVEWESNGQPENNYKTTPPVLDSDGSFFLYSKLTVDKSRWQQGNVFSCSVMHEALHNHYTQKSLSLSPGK
# light: B2 light with S64A
# notes: also called mAb 29
# B7: Humanized anti-ILT3 mAb ((52B8 VH1 M64V/VL6) L234A L235A D265S) IgG1/Kappa (antibody)
# heavy: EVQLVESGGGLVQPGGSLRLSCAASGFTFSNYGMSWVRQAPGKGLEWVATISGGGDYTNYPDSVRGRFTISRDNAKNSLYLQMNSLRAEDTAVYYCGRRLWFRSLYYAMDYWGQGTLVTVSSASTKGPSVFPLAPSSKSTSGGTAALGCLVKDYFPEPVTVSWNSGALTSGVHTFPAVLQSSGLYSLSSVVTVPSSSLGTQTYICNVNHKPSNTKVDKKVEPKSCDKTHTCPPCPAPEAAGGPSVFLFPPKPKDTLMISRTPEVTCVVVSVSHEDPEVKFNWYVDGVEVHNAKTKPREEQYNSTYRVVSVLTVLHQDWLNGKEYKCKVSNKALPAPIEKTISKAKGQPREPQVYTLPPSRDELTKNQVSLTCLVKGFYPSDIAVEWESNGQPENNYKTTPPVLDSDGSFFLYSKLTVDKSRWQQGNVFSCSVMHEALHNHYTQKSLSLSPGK
# light: B2 light with L4M
# notes: also called mAb 27
# B8: Humanized anti-ILT3 mAb (52B8 VH1 M64V/VL8) IgG4 S228P/Kappa (antibody)
# heavy: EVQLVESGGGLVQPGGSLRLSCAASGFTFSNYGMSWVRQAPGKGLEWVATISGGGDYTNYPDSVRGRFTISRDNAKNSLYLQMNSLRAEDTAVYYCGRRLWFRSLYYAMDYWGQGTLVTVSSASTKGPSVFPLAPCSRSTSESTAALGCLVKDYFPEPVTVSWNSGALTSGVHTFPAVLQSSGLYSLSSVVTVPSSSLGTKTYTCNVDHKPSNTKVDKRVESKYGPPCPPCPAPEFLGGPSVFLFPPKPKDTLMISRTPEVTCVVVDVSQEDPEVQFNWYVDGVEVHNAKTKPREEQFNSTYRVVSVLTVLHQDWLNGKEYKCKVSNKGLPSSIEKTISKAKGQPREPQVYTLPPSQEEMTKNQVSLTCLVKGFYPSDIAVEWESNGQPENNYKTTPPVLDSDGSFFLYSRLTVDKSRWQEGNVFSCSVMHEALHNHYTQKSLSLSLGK
# light: B2 light with S64A
# notes: also called mAb 33
# B9: Humanized anti-ILT3 mAb ((52B8 VH1 M64V/VL5) L234A L235A D265S) IgG1/Kappa (antibody)
# heavy: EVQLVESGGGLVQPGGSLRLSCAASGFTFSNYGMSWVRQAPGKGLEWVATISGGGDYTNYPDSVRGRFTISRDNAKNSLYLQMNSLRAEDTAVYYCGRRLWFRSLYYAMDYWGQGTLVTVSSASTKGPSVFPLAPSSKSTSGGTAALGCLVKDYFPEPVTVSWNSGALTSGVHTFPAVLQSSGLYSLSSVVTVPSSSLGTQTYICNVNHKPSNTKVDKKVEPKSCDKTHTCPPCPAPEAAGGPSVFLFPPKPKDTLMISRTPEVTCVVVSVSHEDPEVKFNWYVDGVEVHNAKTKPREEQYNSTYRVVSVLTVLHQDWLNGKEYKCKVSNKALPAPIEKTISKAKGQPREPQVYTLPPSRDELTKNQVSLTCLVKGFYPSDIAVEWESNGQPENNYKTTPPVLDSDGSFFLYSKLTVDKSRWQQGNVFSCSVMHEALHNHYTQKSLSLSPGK
# light: B2 light with R72G
# notes: also called mAb 26
# B10: Humanized anti-ILT3 mAb ((52B8 VH1 M64V/VL2) L234A L235A D265S) IgG1/Kappa (antibody)
# heavy: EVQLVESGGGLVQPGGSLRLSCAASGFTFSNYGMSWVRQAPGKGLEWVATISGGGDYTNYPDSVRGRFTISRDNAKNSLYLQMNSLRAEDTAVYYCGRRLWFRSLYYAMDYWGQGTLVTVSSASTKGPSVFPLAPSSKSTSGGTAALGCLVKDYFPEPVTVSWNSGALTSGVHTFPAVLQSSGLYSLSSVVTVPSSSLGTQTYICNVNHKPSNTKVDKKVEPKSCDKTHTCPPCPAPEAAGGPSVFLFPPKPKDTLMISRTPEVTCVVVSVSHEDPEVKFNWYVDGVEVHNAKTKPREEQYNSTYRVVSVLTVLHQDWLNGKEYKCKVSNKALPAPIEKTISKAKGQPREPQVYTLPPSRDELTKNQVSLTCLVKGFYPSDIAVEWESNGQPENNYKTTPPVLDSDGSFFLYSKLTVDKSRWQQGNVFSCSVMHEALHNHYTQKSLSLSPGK
# light: B1 light
# notes: also called mAb 25
# B11: Chimeric anti-ILT3 52B8 mouse VH M64V/human IgG4 (S228P):mouse VL/human Kappa (antibody, V domains shown)
# VH: EVQLVESGGDLVKPGGSLKLSCAASGFTFSNYGMSWVRQTPDRRLEWVATISGGGDYTNYPDSVRGRFTISRDNAKNTLYLQMSSLKSEDTAMYYCGRRLWFRSLYYAMDYWGQGTSVTVSS
# VL: NIVLTQSPASLAVSLGQRATISCRASEKVDSFGNSFMHWYQQKPGQPPKLLIYLTSNLDSGVPARFSGSGSRTDFALTIDPVEADDAATYYCQQNNEDPYTFGGGTKLEIKR
# notes: also called mAb 74
# B12: Humanized anti-ILT3 mAb (52B8 VH1 M64L/VL2) IgG4 S228P/Kappa (antibody, V domains shown)
# VH: EVQLVESGGGLVQPGGSLRLSCAASGFTFSNYGMSWVRQAPGKGLEWVATISGGGDYTNYPDSLRGRFTISRDNAKNSLYLQMNSLRAEDTAVYYCGRRLWFRSLYYAMDYWGQGTLVTVSS
# VL: DIVLTQSPDSLAVSLGERATINCRASEKVDSFGNSFMHWYQQKPGQPPKLLIYLTSNLDSGVPDRFSGSGSGTDFTLTISSLQAEDVAVYYCQQNNEDPYTFGQGTKLEIKR
# notes: also called mAb 18
# B13: Humanized anti-ILT3 mAb (52B8 VH2 M64L/VL2) IgG4 S228P/Kappa (antibody, V domains shown)
# VH: B12 VH with R87K
# VL: B12 VL
# notes: also called mAb 22
# B14: Humanized anti-ILT3 mAb (52B8 VH2 M64V/VL2) IgG4 S228P/Kappa (antibody, V domains shown)
# VH: B12 VH with L64V, R87K
# VL: B12 VL
# notes: also called mAb 14
# B15: Humanized anti-ILT3 mAb (52B8 VH2/VL2) IgG4 S228P/Kappa (antibody, V domains shown)
# VH: B12 VH with L64M, R87K
# VL: B12 VL
# notes: also called mAb 6
# B16: Humanized anti-ILT3 mAb (52B8 VH2 M64L/VL1) IgG4 S228P/Kappa (antibody, V domains shown)
# VH: B12 VH with R87K
# VL: B12 VL with G72R
# notes: also called mAb 21
# B17: Humanized anti-ILT3 mAb (52B8 VH1/VL2) IgG4 S228P/Kappa (antibody, V domains shown)
# VH: B12 VH with L64M
# VL: B12 VL
# notes: also called mAb 2
# B18: Humanized anti-ILT3 mAb (52B8 VH1 M64V/VL5 N34Q) IgG4 S228P/Kappa (antibody, V domains shown)
# VH: B12 VH with L64V
# VL: DIQLTQSPSSLSASVGDRVTITCRASEKVDSFGQSFMHWYQQKPGKAPKLLIYLTSNLDSGVPSRFSGSGSGTDFTLTISSLQPEDFATYYCQQNNEDPYTFGQGTKLEIKR
# notes: also called mAb 46; humanized 52B8
# B19: Mouse anti-ILT3 mAb 11D1 IgG2b/Kappa (antibody, V domains shown)
# VH: QVQLQQSGAELMKPGASVKISCKATGYTFRTYWIEWVKQRPGHGLEWIGEILPGNGNTHFNENFKDKATFTADTSSNAAYMQLSSLTSEDSAVYYCVRRLGRGPFDFWGQGTTLTVSS
# VL: DIQMTQSPSSLSVSLGGKVTITCKASQDINEYIGWYQRKPGKGPRLLIHYTSTLQSGIPSRFSGSGSGRDYSLSISNLEPEDIATYYCLQYANPLPTFGGGTKLEIK
# notes: Mouse IgG2b/Kappa; also called p11D1; LB182.11D1.1A1
# Target: T1, rhesus ILT3-His tagged recombinant …
# Assay: Biacore SPR, column rhILT3 KD (nM)
row,Kd [nM],Binder
1,8.77,B1
2,5.56,B2
3,4.8,B3
4,10.3,B4
5,5.61,B5
6,5.74,B6
7,10.3,B7
8,5.59,B8
9,4.9,B9
10,8.66,B10

# Target: T2, Human ILT3 (LILRB4) extracellular domain with C-terminal His Tag (human, UniProt Q8NHJ6 22-259)
# T2 construct: the claims count residues 1-238 as the extracellular domain; also called human ILT3-His; ILT3_H
# Assay: Biacore SPR, column huILT3 KD (nM)
row,Kd [nM],Binder
1,0.72,B1
2,0.57,B2
3,0.6,B3
4,0.88,B4
5,0.53,B5
6,0.56,B6
7,0.92,B7
8,0.54,B8
9,0.61,B9
10,0.74,B10

# Target: T3, Rhesus monkey ILT3 expressed on CHO-K1 cells (rhesus monkey (Macaca mulatta))
# T3 construct: whole, on cells; also called rhILT3; CHO-rhesus ILT3
# Assay: cELISA, CHO rhesus ILT3 cells
row,EC50 [µg/mL],Binder
1,0.096,B11
2,0.137,B12
3,0.081,B13
4,0.126,B14
5,0.118,B15
6,0.148,B1
7,0.112,B16
8,0.109,B17
9,0.12,B18

# Target: T2, Human ILT3 (LILRB4) extracellular …
# Assay: SPR (Biacore), human ILT3-His
# Description: (§1) The binding kinetics and affinities of anti-human ILT3 clones for human or rhesus ILT3-His tagged recombinant protein were measured by surface plasmon resonance using a Biacore™ T200 system (GE Healthcare, Piscataway, NJ). HBS-EP+ buffer (BR-1006-69) was used as the running buffer. Anti-human Fc antibody (Human Fc Capture Kit, BR100839, GE Healthcare) was immobilized via amine coupling chemistry in all four flow cells on a Series S CM5 sensor chip (BR100530 or 29149603, GE Healthcare) following manufacturer instructions. Flow cell 1 was used as reference for background subtraction and was not used for capture. […] Following each injection cycle, all four flow cells were regenerated using 30 second injection of 3M MgCl₂ solution at a flow rate of 10 μL/minute. Reference subtracted sensorgrams were fit to a 1:1 Langmuir Binding Model in the Biacore™ T200 Evaluation Software (Version 2.0) to determine the association (ka) and dissociation (kd) rate constants and the equilibrium dissociation constant KD (=kd/ka).
row,Kd [nM],Binder
1,0.44,B11
2,1,B12
3,0.97,B13
4,1,B14
5,1.1,B15
6,1.1,B1
7,0.88,B16
8,1.1,B17
9,0.57,B2
10,0.6,B3
11,0.88,B4
12,0.53,B5
13,0.77,B18
14,0.56,B6
15,0.92,B7
16,0.54,B8
17,0.61,B9
18,0.74,B10

# Target: T4, human ILT3 expressed on cells (human, UniProt Q8NHJ6 22-448)
# T4 construct: whole, on cells; also called huILT3; LILRB4
# Assay: cELISA, CHO human ILT3 cells
row,EC50 [µg/mL],Binder
1,0.075,B11
2,0.079,B12
3,0.057,B13
4,0.077,B14
5,0.1,B15
6,0.085,B1
7,0.079,B16
8,0.7,B17
9,0.088,B18
10,50.5,B19

# Target: T1, rhesus ILT3-His tagged recombinant …
# Assay: SPR (Biacore), rhesus ILT3-His
# Description: as §1
row,Kd [nM],Binder
1,9.2,B11
2,22,B12
3,21,B13
4,22,B14
5,21,B15
6,22,B1
7,27,B16
8,20,B17
9,5.6,B2
10,4.8,B3
11,10,B4
12,5.6,B5
13,15,B18
14,5.7,B6
15,10,B7
16,5.6,B8
17,4.9,B9
18,8.7,B10

# Target: T4, human ILT3 expressed on cells
# Assay: cELISA, CHO human ILT3 cells
# Remark: another data set of the same source
# Description: Mouse anti-human ILT3 antibodies were tested for binding to human ILT3, and cross-reactivity to Rhesus monkey ILT3, human ILT5, human ILT7, human ILT8, and human ILT11 expressing CHO-K1 cells using a cell-based ELISA format. CHO-K1 cells were plated in 96-well tissue-culture plates in 50 μL of DMEM/F12, 10% BCS and gentamycin (CHO-K1 media). Cells were plated at either 2×10⁴ cells/well two days prior to the assay or 4×10⁴ cells/well one day prior to the assay. Media was removed from the wells prior to adding the test samples. Purified antibody was serially-diluted in CHO-K1 media and added to the CHO-K1 plates. The samples were incubated at room temperature for 30-60 minutes and plates were washed three times with PBS/05% Tween-20 using the cell wash program on the Biotek EL405x Select CW plate washer. Binding was detected using an HRP-conjugated goat anti-mouse IgG (Southern Biotech cat #1031-05) secondary antibody added at a 1:2000 dilution in CHO-K1 media and incubated at room temperature for 30-60 minutes. Assay plates were washed as above and developed with TMB and stopped with TMB stop solution (KPL cat #50-85-06). The absorbance at 450 nm—620 nm was determined. Mouse IgG1 (MIgG1) served as a control.
row,EC50 [µg/mL],Binder
1,0.0505,B19

# Target: T2, Human ILT3 (LILRB4) extracellular …
# Assay: SPR (Biacore), human ILT3-His
# Remark: another data set of the same source
row,Kd [nM],Binder
1,14.1,B19
